Data published in US6127178A, “Apoptotic peptides” (The Regents of the University of California, priority 1998, dated 2000).
Entries after “also recorded” stand apart in the source; their conditions may differ.

How the values were obtained:
[1] = tested on: 32D.3 myeloid cells; assay: Viability by trypan blue dye exclusion in 32D.3 transfectants; format: cell-based, mouse; conditions: for rates of cell death: following withdrawal of IL-3, relative to control cells
Excerpt: cDNA constructs and establishment of cell lines. The mouse 32D.3 myeloid cell line was maintained in RPMI 1640 medium (GIBCO) supplemented with 10% fetal calf serum and 20U of IL-3 per ml as previously described (3, 12). The human IdI, Id2 and Id3 cDNAs (5, 6, 11) were introduced into the pMAM-Neo expression plasmid (Clontech, Palo Alto, Calif.) at the Xhol site. Mutations in Id2 and Id3 were generated by the polymerase chain reaction. To prepare an N-terminus deletion mutant, a 0.3 kb SalI-XhoI fragment lacking the region encoding amino acids 1-34 was inserted into the pMAM vector. A C-terminally truncated Id2 was prepared by removing a SmaI fragment containing cDNA corresponding to amino acids 93-135. Id2ΔHLH was prepared as previously described (34) and subcloned into the pMAM vector at the XhoI site. The primary structure of all mutants was confirmed by DNA sequencing. 32D.3 cells were electroporated as previously described with 10 μg of linearized plasmid DNA (12). Transfected cells were selected in medium containing 0.4/mg/ml G418 and single cell clones were isolated by limiting dilution, as well as pools of transfectants. To prepare additional cultures, drug-resistant clones and pools of clones were prepared by transfecting cells with pMAMNeo DNA alone and pMAMNeo containing Id2 cDNAs in the antisense orientation. 32D.3 cells were grown in suspension and maintained at equivalent exponential growth phases by seeding at 1×10^5 cells per ml culture medium. All subsequent analyses were performed using cells harvested at 0.5-1×10^6 cells per ml.
Viability and apoptosis assays. To investigate the effects of Id gene expression upon viability, cells growing exponentially in the presence of IL-3 (20 U/ml) were treated with dexamethasone for 16 hours. The cells were collected by centrifugation at 200×g for 10 min, washed twice in PBS, and resuspended in RPMI medium with 10% fetal bovine serum without IL-3. The number of viable cells was determined at various times after IL-3 withdrawal by trypan blue dye exclusion. […]

[2] = tested on: 32D.3 myeloid cells; assay: Apoptosis (TUNEL) assay in 32D.3 transfectants; format: cell-based, mouse; conditions: following IL-3 withdrawal, dex-induced expression
Excerpt: cDNA constructs and establishment of cell lines. The mouse 32D.3 myeloid cell line was maintained in RPMI 1640 medium (GIBCO) supplemented with 10% fetal calf serum and 20U of IL-3 per ml as previously described (3, 12). The human IdI, Id2 and Id3 cDNAs (5, 6, 11) were introduced into the pMAM-Neo expression plasmid (Clontech, Palo Alto, Calif.) at the Xhol site. Mutations in Id2 and Id3 were generated by the polymerase chain reaction. To prepare an N-terminus deletion mutant, a 0.3 kb SalI-XhoI fragment lacking the region encoding amino acids 1-34 was inserted into the pMAM vector. A C-terminally truncated Id2 was prepared by removing a SmaI fragment containing cDNA corresponding to amino acids 93-135. Id2ΔHLH was prepared as previously described (34) and subcloned into the pMAM vector at the XhoI site. The primary structure of all mutants was confirmed by DNA sequencing. 32D.3 cells were electroporated as previously described with 10 μg of linearized plasmid DNA (12). […]
Expression of Id genes and immunoblot analysis. […] The expression of Bax proteins was monitored using a rabbit anti-Bax polyclonal sc-930 (Santa Cruz Biotechnology, Santa Cruz, Calif.). […]
Viability and apoptosis assays. […] The number of viable cells was determined at various times after IL-3 withdrawal by trypan blue dye exclusion. […]

[3] = tested on: U20S osteosarcoma cells; assay: DNA content by flow cytometry in tet-regulated U20S transfectants; format: cell-based; conditions: clone 9, four days after removal of tetracycline (1000 ng/ml), in serum
Description: To prepare a recombinant expression construct encoding Id2 which could be regulated by the addition of tetracycline to the culture media, the Kpn1/HindIII filled-in fragment of Id2 cDNA was inserted into the pUHD 10-3 vector (26) at EcoRI blunt-ended sites to prepare a tTA-responsive Id2 expression vector. DNA from pUHD-10-3Id2 was used in addition to DNA from pTet-TAk (GIBCO), encoding the tetracycline-regulatable tTA protein. Stable transfectants were prepared in the U20S osteosarcoma cell line by performing a 3 vector transfection using LipofectAmine (GIBCO) at a DNA ratio of 5:5:1 between pTet-Id2:ptet-TAk:pcDNA-3 and selected in the presence of DME/10%FBS/G418 (0.6 mg/ml)/tetracycline (5 μg/ml) media was changed after 2 days. […] To show expression of Id2, cells were trypsinized and plated with varying concentrations of tetracycline (0-1000 ng/ml).
To determine the extent of apoptosis in U20S cells transfected with pTet-Id2 DNA, cells were plated at a density of 5×10^5 cells per p100 plate and allowed to adhere for 24 hours in the presence of 1000 ng/ml tetracycline (tet). Then the media was changed to either 0 or 1000 ng/ml tet after 2 washes with PBS. The cells were maintained in the culture for 4 days before harvesting by trypsinization (floating cells were also harvested). […] DNA content was determined by flow cytometry on a FACSort (53).

[4] = tested on: Bax; assay: Immunoblot of apoptosis regulators in 32D.3 transfectants; format: cell-based, mouse
Description: Expression of Id genes and immunoblot analysis. Id gene expression was induced by addition of 1 μM dexamethasone (Sigma) for 16 hours. Cells were then collected at the indicated times by centrifugation, washed in PBS, and whole cell lysates were prepared by resuspending the pellets in RIPA buffer (150 mM NaCl, 1 mM EDTA, 1% Nonidet P-40, 1% sodium deoxycholate, 20 mM Tris-HCl pH 7.2) containing protease inhibitors (1 μM phenylmethyl-sulfonylfluoride, 0.01 μM benzamidine HCl, 1 μg/ml o-phenanthroline, and 0.5 μg/ml each of antipain, leupeptin, pepstatin A, and aprotinin). The lysates were then clarified by centrifugation and examined by 12.5% SDS-PAGE. Western blot analysis was carried out to detect expression of Id proteins using the sc-489 rabbit polyclonal antibody against Id2 (Santa Cruz Biotechnology, Santa Cruz, Calif.) and rabbit polyclonal antibodies generated against bacterially expressed Id1 or Id3 (C. Hernandez, unpublished). The expression of Bax proteins was monitored using a rabbit anti-Bax polyclonal sc-930 (Santa Cruz Biotechnology, Santa Cruz, Calif.). Briefly, blots were washed with blocking buffer [4% milk powder and 0.2% Tween-20 in phosphate-buffered saline (PBS)], incubated with anti-Id2 or Bax antibodies (used at a 1:1000 dilution in blocking buffer), washed, and incubated with peroxidase-conjugated […]. […]

[5] = tested on: 32D.3 myeloid cells; assay: FACS analysis of subdiploid population in 32D.3 transfectants; format: cell-based, mouse; conditions: following IL-3 removal
Description: Id2 enhances apoptosis in 32D.3 myeloid cells following IL-3 withdrawal. Since Id2 levels in 32D.3 cells increased in association with IL-3 withdrawal, we examined the effect of increasing Id2 expression on the apoptotic response of these cells. 32D.3 myeloid progenitor cells were transfected with the dexamethasone (dex)-inducible pMAMNeo expression vector containing a full-length Id2 cDNA. The expression of Id2 in clones and pools of transfectants was determined in immunoblots, and we observed a 3-4 fold increase in Id2 protein levels upon treatment of the cells with dex for 16 hours as compared to cells transfected with vector DNA or with a pMAMNeo recombinant plasmid with Id2 in the antisense orientation.

B1: Id3: Id family helix-loop-helix protein expressed in 32D.3 cells from pMAMNeo (protein, UniProt P41133 1-119, looked up)
DNA-binding protein inhibitor …: MKALSPVRGCYEAVCCLSERSLAIARGRGKSPSTEEPLSLLDDMNHCYSRLRELVPGVPRGTQLSQVEILQRVIDYILDLQVVLAEPAPGPPDGPHLPIQTAELTPELVISKDKRSFCH
- rates of cell death [1]: without effect

B2: Id2: full-length Id2 helix-loop-helix protein expressed from transfected cDNA (pMAMNeo dex-inducible or tet-regulated vector) (protein, UniProt Q02363 1-134, looked up)
chain: MKAFSPVRSVRKNSLSDHSLGISRSKTPVDDPMSLLYNMNDCYSKLKELVPSIPQNKKVSKMEILQHVIDYILDLQIALDSHPTIVSLHHQRPGQNQASRTPLTTLNTDISILSLQASEFPSELMSNDSKALCG
modifications: full-length
- extent of apoptosis by the TUNEL assay [2]: significantly elevated apoptosis; also recorded: concentration-dependent; also recorded: expected enhancement in apoptosis
- rates of cell death [1]: dramatically accelerated rates of death
- effects on viability ([1]; presence of IL-3, 16 hours of treatment with dex): only minor effects on viability
- apoptotic cells with subdiploid DNA content [3]: a large proportion of apoptotic cells with subdiploid DNA content
- levels of other known regulators including Bad, Bcl-2, Bcl-XL and Bcl-XS ([4]; cultured in IL-3): no changes
- Bax levels ([4]; cultured in IL-3, relative to vector transfected cells): elevated
- subdiploid population, indicative of apoptotic DNA fragmentation [5]: significantly augmented
